Each block holds one binder with its values, some of them ahead of it.
Key:
[1] = molecular target: T1, Control (BSA) (Bos taurus, UniProt P02769); assay: ELISA, 5 ug/ml scFv on coated Control (BSA), anti-HA-HRP
T1 construct: coated as control protein; also called BSA protein
Description: (§1) By using the produced scFv protein, the binding affinity to human/mouse c-Met extracellular domain+Fc protein was confirmed through ELISA. Human/mouse c-Met coated on a 96-well plate were treated with 5 μg/ml of scFv proteins (1F12, 2A01, 2C03, and 2D05), followed by binding at room temperature for 1 hour. After that, the plate was washed three times with 0.1% TBST solution, and then treated with anti-HA-HRP antibody for 1 hour, to detect the scFv proteins that bind to c-Met. After that, the plate was washed three times, and then treated with 10 μl of TMB substrate, followed by standing for 5 minutes. The reaction was stopped by using sulfuric acid solution, and then the absorbance was determined by ELISA reader. As a result, it was verified that each scFv protein had significant binding affinity to human and mouse c-Met proteins as compared with the control group (IgG, BSA) (FIG. 5A). In addition, after the cells were treated with 500 ng/ml of each scFv protein using human c-Met protein to which Fc region was not bound, the same ELISA assay was conducted.

[2] = molecular target: c-Met protein (species and construct not stated); assay: SPR, Biacore T100, c-Met amine-coupled on CM5 chip, scFv as analyte
Source text: For the confirmation of more accurate binding affinity (coupling constant), the binding affinity of respective clones to c-Met was verified through surface plasmon resonance analysis. Respective antibody fragments were expressed in the host E. coli, followed by purification, and then dialyzed with PBS solution. Biacore T100 (GE healthcare) was used for the analysis. The c-Met protein was fixed to a dextran medium through an amine coupling reaction in the CM5 sensor chip. […] Based on these values, kinetic analysis was conducted through the BIA-evaluation program. As a result, the KD values of the 1F12 and 2A01 clones were measured to be 6⁻⁹×10⁻⁸ M and the Kd value of 2C03 was verified to be 10⁻⁷ M (Table 4).

[3] = molecular target: T2, mouse c-Met-Fc protein (mouse c-Met extracellular domain + Fc) (mouse, UniProt P16056 25-931); assay: ELISA, periplasmic scFv-pIII extract on coated mouse c-Met-Fc, anti-HA-HRP, OD450 as ratio to control coat (BSA, IgG)
T2 construct: extracellular domain; not shown: Fc region of IgG
Description: After a total of six rounds of panning with mouse/human c-Met were finished, the phage particles collected from the final round of panning were confirmed as colonies in the medium through infection of host cells. These colonies were taken and inoculated in a 96 well plate containing 200 μl of SB/ampicillin media and then cultured (37° C., within 3 hours). After that, for the induction of scFv-pIII protein expression, 1 mM final concentration IPTG was added to each well, followed by culturing overnight at 30° C. After that, the cultured plate was centrifuged to discard the supernatant. Then, for the collection of periplasmic fractions from the cultured cells in each well, the culture plate was treated with 40 μl of TES solution (20% w/v sucrose, 50 mM Tris, 1 mM EDTA, pH 8.0) maintained at 4° C., and then kept to stand at 4° C. for 30 minutes, so that the cells were lysed. After that, the cells were treated with 60 μl of 0.2×TES solution, and then kept to stand for 30 minutes. Finally, the plate was centrifuged and the supernatant was collected, thereby producing scFv-pIII protein on a small scale.
At the same time, a 96 well plate coated with human or mouse c-Met-Fc protein was prepared, and then 25 μl of aliquot was taken from the collected periplasmic fractions and added to each well, followed by binding for 1 hour. Then, after three or four times of washing procedures were performed using TBST, anti-HA-HRP antibody was added, followed by binding for 1 hour. The plate was again washed, followed by induction of a color development reaction (TMB substrate), and then the values of color development were measured at O.D. 450 nm. […] Since antibody in which c-Met extracellular domain binds to Fc region of IgG was used at the time of the panning, commercialized antibody (Erbitux) or BSA protein was used as a control group in order to exclude the phage particles that bind to Fc region.

[4] = molecular target: T3, human c-Met-Fc protein (human c-Met extracellular domain + Fc) (human, UniProt P08581 25-932); assay: ELISA, scFv titrated 2-fold from 500 ng/ml on coated human c-Met, anti-HA-HRP, no HGF
T3 construct: extracellular domain; also called c-Met extracellular domain+Fc protein; not shown: Fc region of IgG
Description: as §1, with “Human/mouse c-Met coated on a 96-well plate were treated with 5 μg/ml of scFv proteins (1F12, 2A01, 2C03, and 2D05), followed by binding at room temperature for 1 hour.” left out
For the verification of whether the selected scFv proteins have competitive binding affinity with the hepatocyte growth factor, which is the ligand of c-Met, the ligand competitive ELISA experiment was conducted. As in examples 2 and 4, the coated human c-Met was prepared, and respective wells were treated with samples in which each scFv protein was diluted at a 2-fold dilution from 500 ng/ml to about 1 ng/ml. After the treatment, the experiment procedure was conducted as in Example 4.

T1 sequence (P02769 25-607 limits assumed): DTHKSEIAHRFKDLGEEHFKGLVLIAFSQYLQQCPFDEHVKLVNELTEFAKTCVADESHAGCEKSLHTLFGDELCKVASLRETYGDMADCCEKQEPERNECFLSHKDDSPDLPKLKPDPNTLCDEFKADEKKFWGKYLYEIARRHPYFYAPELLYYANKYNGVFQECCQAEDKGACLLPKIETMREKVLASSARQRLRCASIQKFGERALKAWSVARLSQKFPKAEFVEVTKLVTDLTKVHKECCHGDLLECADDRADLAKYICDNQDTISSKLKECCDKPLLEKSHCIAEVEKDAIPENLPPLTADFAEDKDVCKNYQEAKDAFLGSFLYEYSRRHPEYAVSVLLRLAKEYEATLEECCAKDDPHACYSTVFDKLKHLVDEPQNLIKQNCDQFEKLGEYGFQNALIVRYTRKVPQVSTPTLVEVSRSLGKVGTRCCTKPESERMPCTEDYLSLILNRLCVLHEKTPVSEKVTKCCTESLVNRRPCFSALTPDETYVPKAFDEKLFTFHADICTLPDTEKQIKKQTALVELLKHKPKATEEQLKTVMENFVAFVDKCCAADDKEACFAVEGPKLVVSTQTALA
T2 sequence (P16056 25-931): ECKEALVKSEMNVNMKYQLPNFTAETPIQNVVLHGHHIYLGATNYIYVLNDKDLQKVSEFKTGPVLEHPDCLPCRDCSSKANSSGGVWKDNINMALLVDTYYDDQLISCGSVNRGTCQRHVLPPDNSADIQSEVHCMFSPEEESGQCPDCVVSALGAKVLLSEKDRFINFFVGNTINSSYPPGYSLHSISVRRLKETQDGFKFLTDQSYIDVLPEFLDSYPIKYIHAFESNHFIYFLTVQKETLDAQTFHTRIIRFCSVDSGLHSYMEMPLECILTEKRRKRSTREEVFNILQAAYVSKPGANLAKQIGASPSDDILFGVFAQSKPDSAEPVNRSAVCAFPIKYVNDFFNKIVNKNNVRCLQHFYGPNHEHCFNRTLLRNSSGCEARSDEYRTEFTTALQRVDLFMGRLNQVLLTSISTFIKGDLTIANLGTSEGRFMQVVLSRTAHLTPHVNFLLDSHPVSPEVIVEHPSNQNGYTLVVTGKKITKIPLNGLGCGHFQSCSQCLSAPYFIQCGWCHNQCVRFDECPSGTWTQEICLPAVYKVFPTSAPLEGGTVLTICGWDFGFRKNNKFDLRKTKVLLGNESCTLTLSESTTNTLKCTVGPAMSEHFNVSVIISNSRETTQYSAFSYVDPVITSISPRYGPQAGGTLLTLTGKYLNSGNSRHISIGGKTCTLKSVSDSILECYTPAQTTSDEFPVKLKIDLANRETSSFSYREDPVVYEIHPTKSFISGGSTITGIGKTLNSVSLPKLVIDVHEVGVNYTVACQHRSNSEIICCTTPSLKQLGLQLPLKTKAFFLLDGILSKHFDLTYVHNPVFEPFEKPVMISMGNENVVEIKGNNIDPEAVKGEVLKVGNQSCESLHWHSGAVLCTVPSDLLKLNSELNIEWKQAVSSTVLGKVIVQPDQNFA
Chain of c-Met protein (species and construct not stated) (P08581 whole entry, the tested form may be a part): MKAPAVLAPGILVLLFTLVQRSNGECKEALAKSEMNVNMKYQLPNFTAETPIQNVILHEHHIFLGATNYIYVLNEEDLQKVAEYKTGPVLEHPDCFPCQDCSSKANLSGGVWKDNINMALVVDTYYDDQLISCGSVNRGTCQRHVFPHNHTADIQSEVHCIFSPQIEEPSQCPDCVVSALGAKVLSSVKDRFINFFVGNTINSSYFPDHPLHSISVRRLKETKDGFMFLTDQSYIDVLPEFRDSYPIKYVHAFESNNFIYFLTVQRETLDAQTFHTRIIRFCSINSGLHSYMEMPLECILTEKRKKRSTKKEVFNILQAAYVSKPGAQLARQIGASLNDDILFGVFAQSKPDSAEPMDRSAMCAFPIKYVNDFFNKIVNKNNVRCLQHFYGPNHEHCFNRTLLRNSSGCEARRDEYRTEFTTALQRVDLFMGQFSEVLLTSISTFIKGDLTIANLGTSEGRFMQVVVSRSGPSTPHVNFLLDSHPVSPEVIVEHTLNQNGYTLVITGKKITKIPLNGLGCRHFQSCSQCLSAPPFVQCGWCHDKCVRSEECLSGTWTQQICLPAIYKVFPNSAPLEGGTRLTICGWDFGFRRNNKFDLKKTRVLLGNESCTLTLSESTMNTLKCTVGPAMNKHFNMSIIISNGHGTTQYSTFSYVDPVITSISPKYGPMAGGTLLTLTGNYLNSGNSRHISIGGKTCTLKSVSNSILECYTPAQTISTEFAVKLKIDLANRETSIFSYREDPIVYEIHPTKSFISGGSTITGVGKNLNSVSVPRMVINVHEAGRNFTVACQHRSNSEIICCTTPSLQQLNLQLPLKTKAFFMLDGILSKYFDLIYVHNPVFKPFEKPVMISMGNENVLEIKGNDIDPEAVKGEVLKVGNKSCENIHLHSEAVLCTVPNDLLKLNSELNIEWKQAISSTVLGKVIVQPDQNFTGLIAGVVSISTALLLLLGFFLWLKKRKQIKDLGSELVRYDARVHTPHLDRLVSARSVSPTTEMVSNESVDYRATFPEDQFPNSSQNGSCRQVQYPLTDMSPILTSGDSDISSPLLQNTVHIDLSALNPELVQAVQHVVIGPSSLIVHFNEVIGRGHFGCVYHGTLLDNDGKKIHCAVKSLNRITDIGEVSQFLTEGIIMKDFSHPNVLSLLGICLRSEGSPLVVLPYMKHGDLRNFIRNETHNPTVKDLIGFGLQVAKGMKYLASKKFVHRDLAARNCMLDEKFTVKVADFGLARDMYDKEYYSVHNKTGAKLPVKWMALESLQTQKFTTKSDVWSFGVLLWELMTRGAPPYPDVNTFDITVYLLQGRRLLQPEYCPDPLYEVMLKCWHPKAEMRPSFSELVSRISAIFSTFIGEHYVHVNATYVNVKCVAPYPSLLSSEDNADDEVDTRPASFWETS
T3 sequence (P08581 25-932): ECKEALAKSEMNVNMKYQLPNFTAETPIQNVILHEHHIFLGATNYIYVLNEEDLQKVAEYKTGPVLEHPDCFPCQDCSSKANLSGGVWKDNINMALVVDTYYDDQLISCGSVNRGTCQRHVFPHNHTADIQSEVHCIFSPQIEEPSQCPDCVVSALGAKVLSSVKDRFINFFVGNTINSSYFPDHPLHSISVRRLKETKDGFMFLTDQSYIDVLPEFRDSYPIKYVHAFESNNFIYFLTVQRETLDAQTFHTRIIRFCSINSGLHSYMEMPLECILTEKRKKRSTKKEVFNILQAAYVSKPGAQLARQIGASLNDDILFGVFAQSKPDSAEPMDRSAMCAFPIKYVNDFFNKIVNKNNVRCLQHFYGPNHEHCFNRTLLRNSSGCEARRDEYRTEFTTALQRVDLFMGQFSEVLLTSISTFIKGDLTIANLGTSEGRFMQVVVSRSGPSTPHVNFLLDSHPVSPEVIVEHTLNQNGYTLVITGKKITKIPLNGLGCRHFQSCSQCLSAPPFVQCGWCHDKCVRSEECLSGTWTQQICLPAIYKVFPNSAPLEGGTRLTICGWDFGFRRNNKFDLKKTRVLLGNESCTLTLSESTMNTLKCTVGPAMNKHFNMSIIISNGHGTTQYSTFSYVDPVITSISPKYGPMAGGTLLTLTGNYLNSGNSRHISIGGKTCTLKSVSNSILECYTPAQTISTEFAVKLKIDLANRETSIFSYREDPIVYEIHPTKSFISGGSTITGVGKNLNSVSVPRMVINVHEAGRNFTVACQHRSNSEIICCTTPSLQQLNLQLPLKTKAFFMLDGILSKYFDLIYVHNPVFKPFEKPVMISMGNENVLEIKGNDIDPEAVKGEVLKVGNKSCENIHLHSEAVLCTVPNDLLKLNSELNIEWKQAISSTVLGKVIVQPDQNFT

- binding result [1]: no binding (tested: 5 ug/ml)
- Kd [2]: 239 nM
- koff [2]: 0.186 s⁻¹
- kon [2]: 776000 M⁻¹ s⁻¹
- binding result [3]: binds
B1: 2C03 scFv antibody fragment (scFv)
scFv: EVQLLESGGGLVQPGGSLRLSCAASGFTFSNYAMSWVRQAPGKGLEWVSAISYDSGSIYYADSVKGRFTISRDNSKNTLYLQMNSLRAEDTAVYYCAKAARSCRNWSCSYANGMDVWGQGTLVTVSSGGGGSGGGGSGGGGSQSVLTQPPSASGTPGQRVTISCTGSSSNIGSNYVSWYRQLPGTAPKLLIYSDSNRPSGVPDRFSGSKSGTSASLAISGLRSEDEADYYCGSWDDSLSGYVFGGGTKLTVL
notes: Soluble scFv of about 28 kDa expressed in E. coli TOP10F' and purified over Ni-NTA; also called 2C03 clone; 2CO3

- EC50 (read off the curve) [4]: ~0.04 µg/mL
- binding result [1]: no binding (tested: 5 ug/ml)
- Kd [2]: 93.3 nM
- binding result [3]: binds
B2: 1F12 scFv antibody fragment (scFv)
scFv: EVQLLESGGGLVQPGGSLRLSCAASGFTFSNYAMSWVRQAPGKGLEWVSGISYSGGSTYYADSVKGRFTISRDNSKNTLYLQMNSLRAEDTAVYYCAKASRSCQRPACSYANGMDVWGQGTLVTVSSGGGGSGGGGSGGGGSQSVLTQPPSASGTPGQRVTISCTGSSSNIGNNYVTWYQQLPGTAPKLLIYYNNHRPSGVPDRFSGSKSGTSASLAISGLQSEDEADYYCGSWDYSLSAYVFGGGTKLTVL
notes: Soluble scFv of about 28 kDa expressed in E. coli TOP10F' and purified over Ni-NTA; also called 1F12 clone

- binding result [1]: no binding (tested: 5 ug/ml)
- Kd [2]: 66 nM
- koff [2]: 0.153 s⁻¹
- kon [2]: 2.32e+06 M⁻¹ s⁻¹
- binding result [3]: binds
B3: 2A01 scFv antibody fragment (scFv)
scFv: EVQLLESGGGLVQTGGSLRLSCAASGFTFSSYDMSWVRRAPGKGLEWVSWISHGGSSISYADSVKGRFTISRDNSKNTLYLQMNSLRAEDTAVYYCAKDAYPIRQETFDYWGQGTLVTVSSGGGGSGGGGSGGGGSQSVLTQPPSASGTPGQRVTISCSGSSSNIGNNDVSWYQQLPGTAPKLLIYPDSQRPSGVPDRFSGSKSGTSASLAISGLRSEDEADYYCASWDSSLSGYVFGGGTKLTVL
notes: Soluble scFv of about 28 kDa expressed in E. coli TOP10F' and purified over Ni-NTA; also called 2A01 clone; 2A1
